Reference: paper doi:10.1101/2022.03.02.482546

B1: full-length human CEMIP (cell migration-inducing and hyaluronan-binding protein) (natural protein)
chain: TVAAGCPDQSPELQPWNPGHDQDHHVHIGQGKTLLLTSSATVYSIHISEGGKLVIKDHDEPIVLRTRHILIDNGGELHAGSALCPFQGNFTIILYGRADEGIQPDPYYGLKYIGVGKGGALELHGQKKLSWTFLNKTLHPGGMAEGGYFFERSWGHRGVIVHVIDPKSGTVIHSDRFDTYRSKKESERLVQYLNAVPDGRILSVAVNDEGSRNLDDMARKAMTKLGSKHFLHLGFRHPWSFLTVKGNPSSSVEDHIEYHGHRGSAAARVFKLFQTEHGEYFNVSLSSEWVQDVEWTEWFDHDKVSQTKGGEKISDLWKAHPGKICNRPIDIQATTMDGVNLSTEVVYKKGQDYRFACYDRGRACRSYRVRFLCGKPVRPKLTVTIDTNVNSTILNLEDNVQSWKPGDTLVIASTDYSMYQAEEFQVLPCRSCAPNQVKVAGKPMYLHIGEEIDGVDMRAEVGLLSRNIIVMGEMEDKCYPYRNHICNFFDFDTFGGHIKFALGFKAAHLEGTELKHMGQQLVGQYPIHFHLAGDVDERGGYDPPTYIRDLSIHHTFSRCVTVHGSNGLLIKDVVGYNSLGHCFFTEDGPEERNTFDHCLGLLVKSGTLLPSDRDSKMCKMITEDSYPGYIPKPRQDCNAVSTFWMANPNNNLINCAAAGSEETGFWFIFHHVPTGPSVGMYSPGYSEHIPLGKFYNNRAHSNYRAGMIIDNGVKTTEASAKDKRPFLSIISARYSPHQDADPLKPREPAIIRHFIAYKNQDHGAWLRGGDVWLDSCRFADNGIGLTLASGGTFPYDDGSKQEIKNSLFVGESGNVGTEMMDNRIWGPGGLDHSGRTLPIGQNFPIRGIQLYDGPINIQNCTFRKFVALEGRHTSALAFRLNNAWQSCPHNNVTGIAFEDVPITSRVFFGEPGPWFNQLDMDGDKTSVFHDVDGSVSEYPGSYLTKNDNWLVRHPDCINVPDWRGAICSGCYAQMYIQAYKTSNLRMKIIKNDFPSHPLYLEGALTRSTHYQQYQPVVTLQKGYTIHWDQTAPAELAIWLINFNKGDWIRVGLCYPRGTTFSILSDVHNRLLKQTSKTGVFVRTLQMDKVEQSYPGRSHYYWDEDSGLLFLKLKAQNEREKFAFCSMKGCERIKIKALIPKNAGVSDCTATAYPKFTERAVVDVPMPKKLFGSQLKTKDHFLEVKMESSKQHFFHLWNDFAYIEVDGKKYPSSEDGIQVVVIDGNQGRVVSHTSFRNSILQGIPWQLFNYVATIPDNSIVLMASKGRYVSRGPWTRVLEKLGADRGLKLKEQMAFVGFKGSFRPIWVTLDTEDHKAKIFQVVPIPVVKKKKL
B2: recombinant human hepatocyte growth factor activator (enzyme)
chain: QPGGNRTESPEPNATATPAIPTILVTSVTSETPATSAPEAEGPQSGGLPPPPRAVPSSSSPQAQALTEDGRPCRFPFRYGGRMLHACTSEGSAHRKWCATTHNYDRDRAWGYCVEATPPPGGPAALDPCASGPCLNGGSCSNTQDPQSYHCSCPRAFTGKDCGTEKCFDETRYEYLEGGDRWARVRQGHVEQCECFGGRTWCEGTRHTACLSSPCLNGGTCHLIVATGTTVCACPPGFAGRLCNIEPDERCFLGNGTGYRGVASTSASGLSCLAWNSDLLYQELHVDSVGAAALLGLGPHAYCRNPDNDERPWCYVVKDSALSWEYCRLEACESLTRVQLSPDLLATLPEPASPGRQACGRRHKKRTFLRPRIIGGSSSLPGSHPWLAAIYIGDSFCAGSLVHTCWVVSAAHCFSHSPPRDSVSVVLGQHFFNRTTDVTQTFGIEKYIPYTLYSVFNPSDHDLVLIRLKKKGDRCATRSQFVQPICLPEPGSTFPAGHKCQIAGWGHLDENVSGYSSSLREALVPLVADHKCSSPEVYGADISPNMLCAGYFDCKSDACQGDSGGPLACEKNGVAYLYGIISWGDGCGRLHKPGVYTRVANYVDWINDRIRPPRRLVAPS
B3: recombinant human secreted protein acidic and rich in cysteine (natural protein)
chain: APQQEALPDETEVVEETVAEVTEVSVGANPVQVEVGEFDDGAEETEEEVVAENPCQNHHCKHGKVCELDENNTPMCVCQDPTSCPAPIGEFEKVCSNDNKTFDSSCHFFATKCTLEGTKKGHKLHLDYIGPCKYIPPCLDSELTEFPLRMRDWLKNVLVTLYERDEDNNLLTEKQKLRVKKIHENEKRLEAGDHPVELLARDFEKNYNMYIFPVHWQFGQLDQHPIDGYLSHTELAPLRAPLIPMEHCTTRFFETCDLDNDKYIALDEWAGCFGIKQKDIDKDLVI
B4: recombinant human insulin-like growth factor-binding protein 7 (natural protein)
chain: SSSDTCGPCEPASCPPLPPLGCLLGETRDACGCCPMCARGEGEPCGGGGAGRGYCAPGMECVKSRKRRKGKAGAAAGGPGVSGVCVCKSRYPVCGSDGTTYPSGCQLRAASQRAESRGEKAITQVSKGTCEQGPSIVTPPKDIWNVTGAQVYLSCEVIGIPTPVLIWNKVKRGHYGVQRTELLPGDRDNLAIQTRGGPEKHEVTGWVLVSPLSKEDAGEYECHASNSQGQASASAKITVVDALHEIPVKKGEGAEL
B5: recombinant human high-mobility group protein B2 (natural protein)
chain: MGKGDPNKPRGKMSSYAFFVQTCREEHKKKHPDSSVNFAEFSKKCSERWKTMSAKEKSKFEDMAKSDKARYDREMKNYVPPKGDKKGKKKDPNAPKRPPSAFFLFCSEHRPKIKSEHPGLSIGDTAKKLGEMWSEQSAKDKQPYEQKAAKLKEKYEKDIAAYRAKGKSEAGKKGPGRPTGSKKKNEPEDEEEEEEEEDEDEEEEDEDEE
B6: recombinant human slit homolog 2 protein (ligand)
chain: QCSCSGSTVDCHGLALRSVPRNIPRNTERLDLNGNNITRITKTDFAGLRHLRVLQLMENKISTIERGAFQDLKELERLRLNRNHLQLFPELLFLGTAKLYRLDLSENQIQAIPRKAFRGAVDIKNLQLDYNQISCIEDGAFRALRDLEVLTLNNNNITRLSVASFNHMPKLRTFRLHSNNLYCDCHLAWLSDWLRQRPRVGLYTQCMGPSHLRGHNVAEVQKREFVCSGHQSFMAPSCSVLHCPAACTCSNNIVDCRGKGLTEIPTNLPETITEIRLEQNTIKVIPPGAFSPYKKLRRIDLSNNQISELAPDAFQGLRSLNSLVLYGNKITELPKSLFEGLFSLQLLLLNANKINCLRVDAFQDLHNLNLLSLYDNKLQTIAKGTFSPLRAIQTMHLAQNPFICDCHLKWLADYLHTNPIETSGARCTSPRRLANKRIGQIKSKKFRCSAKEQYFIPGTEDYRSKLSGDCFADLACPEKCRCEGTTVDCSNQKLNKIPEHIPQYTAELRLNNNEFTVLEATGIFKKLPQLRKINFSNNKITDIEEGAFEGASGVNEILLTSNRLENVQHKMFKGLESLKTLMLRSNRITCVGNDSFIGLSSVRLLSLYDNQITTVAPGAFDTLHSLSTLNLLANPFNCNCYLAWLGEWLRKKRIVTGNPRCQKPYFLKEIPIQDVAIQDFTCDDGNDDNSCSPLSRCPTECTCLDTVVRCSNKGLKVLPKGIPRDVTELYLDGNQFTLVPKELSNYKHLTLIDLSNNRISTLSNQSFSNMTQLLTLILSYNRLRCIPPRTFDGLKSLRLLSLHGNDISVVPEGAFNDLSALSHLAIGANPLYCDCNMQWLSDWVKSEYKEPGIARCAGPGEMADKLLLTTPSKKFTCQGPVDVNILAKCNPCLSNPCKNDGTCNSDPVDFYRCTCPYGFKGQDCDVPIHACISNPCKHGGTCHLKEGEEDGFWCICADGFEGENCEVNVDDCEDNDCENNSTCVDGINNYTCLCPPEYTGELCEEKLDFCAQDLNPCQHDSKCILTPKGFKCDCTPGYVGEHCDIDFDDCQDNKCKNGAHCTDAVNGYTCICPEGYSGLFCEFSPPMVLPRTSPCDNFDCQNGAQCIVRINEPICQCLPGYQGEKCEKLVSVNFINKESYLQIPSAKVRPQTNITLQIATDEDSGILLYKGDKDHIAVELYRGRVRASYDTGSHPASAIYSVETINDGNFHIVELLALDQSLSLSVDGGNPKIITNLSKQSTLNFDSPLYVGGMPGKSNVASLRQAPGQNGTSFHGCIRNLYINSELQDFQKVPMQTGILPGCEPCHKKVCAHGTCQPSSQAGFTCECQEGWMGPLCDQRTNDPCLGNKCVHGTCLPINAFSYSCKCLEGHGGVLCDEEEDLFNPCQAIKCKHGKCRLSGLGQPYCECSSGYTGDSCDREISCRGERIRDYYQKQQGYAACQTTKKVSRLECRGGCAGGQCCGPLRSKRRKYSFECTDGSSFVDEVEKVVKCGCTRCVS

Biological target: soluble form of full-length LRP1 (low-density lipoprotein receptor-related protein 1) (human)
Assay: ELISA

| Kd [µM] | Molecule |
| --- | --- |
| > 0.2 | recombinant human leukemia inhibitory factor (from UniProt P15018 23-202) (ligand) |
| 0.0202 | recombinant human ADAMTS1 (from UniProt Q9UHI8 50-967) (enzyme) |
| 0.011 | recombinant human tumour necrosis factor-inducible gene 6 protein (from UniProt P98066 18-277) (natural protein) |
| 0.0064 | recombinant human high-mobility group protein B1 (from UniProt P09429 1-215) (natural protein) |
| 0.0026 | B1 |
| > 0.5 | B2 |
| 0.041 | B3 |
| 0.011 | B4 |
| 0.0039 | B5 |
| 0.002 | B6 |
